According to patent US20210388110A1 (published 2021):

Biological target: T1, soluble human CD3ε chain (human, UniProt P07766 23-126, limits assumed)
T1 construct: the text says soluble human CD3ε chain; also called human CD3 epsilon chain
Test: SPR (Biacore)

T1 sequence (P07766 23-126 limits assumed): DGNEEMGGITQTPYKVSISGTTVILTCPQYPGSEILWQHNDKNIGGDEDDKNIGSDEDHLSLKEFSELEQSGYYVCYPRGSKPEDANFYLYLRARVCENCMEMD

| Binder | Kd |
| --- | --- |
| hCE115HA-E22Hh//-Hi-Kn010G3/L0000-k0 (antibody, human IgG1, kappa, L234A L235A, N297A, single-arm) heavy: QVQLVESGGGVVQPGRSLRLSCAASGFTFSNAWMHWVRQAPGKGLEWVAQIKAKSNNYATYYAESVKGRFTISRDDSKNSLYLQMNSLKTEDTAVYYCRYVHYGAYYGVDAWGQGTTVTVSSASTKGPSVFPLAPSSKSTSGGTAALGCLVKDYFPEPVTVSWNSGALTSGVHTFPAVLQSSGLYSLSSVVTVPSSSLGTQTYICNVNHKPSNTKVDKKVEPKSCDKTHTCPPCPAPEAAGGPSVFLFPPKPKDTLMISRTPEVTCVVVDVSHEDPEVKFNWYVDGVEVHNAKTKPREEQYASTYRVVSVLTVLHQDWLNGKEYKCKVSNKALPAPIEKTISKAKGQPREPQVYTLPPSRCELTKNQVSLSCAVKGFYPSDIAVEWESNGQPENNYKTTPPVLDSDGSFFLVSKLTVDKSRWQQGNVFSCSVMHEALHNHYTQKSLSLSPDYKDDDDK EPKSSDKTHTCPPCPAPELLGGPSVFLFPPKPKDTLMISRTPEVTCVVVDVSHEDPEVKFNWYVDGVEVHNAKTKPREEQYNSTYRVVSVLTVLHQDWLNGKEYKCKVSNKALPAPIEKTISKAKGQPREPQVCTLPPSRDELTKNQVSLWCLVKGFYPSDIAVEWESNGQPENNYKTTPPVLDSDGSFFLYSKLTVDKSRWQQGNVFSCSVMHEALHNRYTQKSLSLSP light: DIVMTQSPLSLPVTPGEPASISCRSSQSLVHSNRNTYLHWYQQKPGQAPRLLIYKVSNRFSGVPDRFSGSGSGTDFTLKISRVEAEDVGVYYCGQGTQVPYTFGQGTKLEIKRTVAAPSVFIFPPSDEQLKSGTASVVCLLNNFYPREAKVQWKVDNALQSGNSQESVTEQDSKDSTYSLSSTLTLSKADYEKHKVYACEVTHQGLSSPVTKSFNRGEC | 143 nM |
| CE115HA179-G1dh//-Hi-Kn010G3/L0000-k0 (antibody, human IgG1, kappa, single-arm) heavy: not shown EPKSSDKTHTCPPCPAPELLGGPSVFLFPPKPKDTLMISRTPEVTCVVVDVSHEDPEVKFNWYVDGVEVHNAKTKPREEQYNSTYRVVSVLTVLHQDWLNGKEYKCKVSNKALPAPIEKTISKAKGQPREPQVCTLPPSRDELTKNQVSLWCLVKGFYPSDIAVEWESNGQPENNYKTTPPVLDSDGSFFLYSKLTVDKSRWQQGNVFSCSVMHEALHNRYTQKSLSLSP light: DIVMTQSPLSLPVTPGEPASISCRSSQSLVHSNRNTYLHWYQQKPGQAPRLLIYKVSNRFSGVPDRFSGSGSGTDFTLKISRVEAEDVGVYYCGQGTQVPYTFGQGTKLEIKRTVAAPSVFIFPPSDEQLKSGTASVVCLLNNFYPREAKVQWKVDNALQSGNSQESVTEQDSKDSTYSLSSTLTLSKADYEKHKVYACEVTHQGLSSPVTKSFNRGEC | 8.35 nM |
| rCE115H-G1dh//-Hi-Kn010G3/L0000-k0 (antibody, human IgG1, kappa, single-arm) heavy: not shown EPKSSDKTHTCPPCPAPELLGGPSVFLFPPKPKDTLMISRTPEVTCVVVDVSHEDPEVKFNWYVDGVEVHNAKTKPREEQYNSTYRVVSVLTVLHQDWLNGKEYKCKVSNKALPAPIEKTISKAKGQPREPQVCTLPPSRDELTKNQVSLWCLVKGFYPSDIAVEWESNGQPENNYKTTPPVLDSDGSFFLYSKLTVDKSRWQQGNVFSCSVMHEALHNRYTQKSLSLSP light: DIVMTQSPLSLPVTPGEPASISCRSSQSLVHSNRNTYLHWYQQKPGQAPRLLIYKVSNRFSGVPDRFSGSGSGTDFTLKISRVEAEDVGVYYCGQGTQVPYTFGQGTKLEIKRTVAAPSVFIFPPSDEQLKSGTASVVCLLNNFYPREAKVQWKVDNALQSGNSQESVTEQDSKDSTYSLSSTLTLSKADYEKHKVYACEVTHQGLSSPVTKSFNRGEC | 57.6 nM |
| CE115HA178-G1dh//-Hi-Kn010G3/L0000-k0 (antibody, human IgG1, kappa, single-arm) heavy: not shown EPKSSDKTHTCPPCPAPELLGGPSVFLFPPKPKDTLMISRTPEVTCVVVDVSHEDPEVKFNWYVDGVEVHNAKTKPREEQYNSTYRVVSVLTVLHQDWLNGKEYKCKVSNKALPAPIEKTISKAKGQPREPQVCTLPPSRDELTKNQVSLWCLVKGFYPSDIAVEWESNGQPENNYKTTPPVLDSDGSFFLYSKLTVDKSRWQQGNVFSCSVMHEALHNRYTQKSLSLSP light: DIVMTQSPLSLPVTPGEPASISCRSSQSLVHSNRNTYLHWYQQKPGQAPRLLIYKVSNRFSGVPDRFSGSGSGTDFTLKISRVEAEDVGVYYCGQGTQVPYTFGQGTKLEIKRTVAAPSVFIFPPSDEQLKSGTASVVCLLNNFYPREAKVQWKVDNALQSGNSQESVTEQDSKDSTYSLSSTLTLSKADYEKHKVYACEVTHQGLSSPVTKSFNRGEC | 10.9 nM |
| CE115HA177-G1dh//-Hi-Kn010G3/L0000-k0 (antibody, human IgG1, kappa, single-arm) heavy: not shown EPKSSDKTHTCPPCPAPELLGGPSVFLFPPKPKDTLMISRTPEVTCVVVDVSHEDPEVKFNWYVDGVEVHNAKTKPREEQYNSTYRVVSVLTVLHQDWLNGKEYKCKVSNKALPAPIEKTISKAKGQPREPQVCTLPPSRDELTKNQVSLWCLVKGFYPSDIAVEWESNGQPENNYKTTPPVLDSDGSFFLYSKLTVDKSRWQQGNVFSCSVMHEALHNRYTQKSLSLSP light: DIVMTQSPLSLPVTPGEPASISCRSSQSLVHSNRNTYLHWYQQKPGQAPRLLIYKVSNRFSGVPDRFSGSGSGTDFTLKISRVEAEDVGVYYCGQGTQVPYTFGQGTKLEIKRTVAAPSVFIFPPSDEQLKSGTASVVCLLNNFYPREAKVQWKVDNALQSGNSQESVTEQDSKDSTYSLSSTLTLSKADYEKHKVYACEVTHQGLSSPVTKSFNRGEC | 35.5 nM |
| CE115HA180-G1dh//-Hi-Kn010G3/L0000-k0 (antibody, human IgG1, kappa, single-arm) heavy: not shown EPKSSDKTHTCPPCPAPELLGGPSVFLFPPKPKDTLMISRTPEVTCVVVDVSHEDPEVKFNWYVDGVEVHNAKTKPREEQYNSTYRVVSVLTVLHQDWLNGKEYKCKVSNKALPAPIEKTISKAKGQPREPQVCTLPPSRDELTKNQVSLWCLVKGFYPSDIAVEWESNGQPENNYKTTPPVLDSDGSFFLYSKLTVDKSRWQQGNVFSCSVMHEALHNRYTQKSLSLSP light: DIVMTQSPLSLPVTPGEPASISCRSSQSLVHSNRNTYLHWYQQKPGQAPRLLIYKVSNRFSGVPDRFSGSGSGTDFTLKISRVEAEDVGVYYCGQGTQVPYTFGQGTKLEIKRTVAAPSVFIFPPSDEQLKSGTASVVCLLNNFYPREAKVQWKVDNALQSGNSQESVTEQDSKDSTYSLSSTLTLSKADYEKHKVYACEVTHQGLSSPVTKSFNRGEC | 16.8 nM |
| hCE115HA-G1dh//-Hi-Kn010G3/L0000-k0 (antibody, human IgG1, kappa, single-arm) heavy: not shown EPKSSDKTHTCPPCPAPELLGGPSVFLFPPKPKDTLMISRTPEVTCVVVDVSHEDPEVKFNWYVDGVEVHNAKTKPREEQYNSTYRVVSVLTVLHQDWLNGKEYKCKVSNKALPAPIEKTISKAKGQPREPQVCTLPPSRDELTKNQVSLWCLVKGFYPSDIAVEWESNGQPENNYKTTPPVLDSDGSFFLYSKLTVDKSRWQQGNVFSCSVMHEALHNRYTQKSLSLSP light: DIVMTQSPLSLPVTPGEPASISCRSSQSLVHSNRNTYLHWYQQKPGQAPRLLIYKVSNRFSGVPDRFSGSGSGTDFTLKISRVEAEDVGVYYCGQGTQVPYTFGQGTKLEIKRTVAAPSVFIFPPSDEQLKSGTASVVCLLNNFYPREAKVQWKVDNALQSGNSQESVTEQDSKDSTYSLSSTLTLSKADYEKHKVYACEVTHQGLSSPVTKSFNRGEC | 65 nM |
